The text below walks through data of patent US8349320.

Test [1] addresses human HVEM mutant E65A expressed on cells (human) (UniProt Q92956). In words: flow cytometry saturation binding on 293T cells transfected with mutant HVEM.
The target in test [2] is human HVEM mutant R62A expressed on cells (human) (UniProt Q92956). Described as above.
Test [3] deals with human HVEM mutant Y47F expressed on cells (human) (UniProt Q92956). The description is as above.
Test [4] has as its target human HVEM mutant S58A expressed on cells (human) (UniProt Q92956). Described as above.
For test [5], the target named is human HVEM mutant Y61F expressed on cells (human) (UniProt Q92956). Described as above.
Sequence of human HVEM mutant Y61F expressed on cells (human) (Q92956 39-283 Y61F): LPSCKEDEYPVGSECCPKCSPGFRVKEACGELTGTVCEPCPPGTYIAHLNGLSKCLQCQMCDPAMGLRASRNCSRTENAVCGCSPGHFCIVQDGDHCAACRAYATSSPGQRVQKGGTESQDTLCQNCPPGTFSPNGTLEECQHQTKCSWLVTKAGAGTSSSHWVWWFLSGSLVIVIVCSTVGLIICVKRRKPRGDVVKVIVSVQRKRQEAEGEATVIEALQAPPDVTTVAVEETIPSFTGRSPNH
Test [6] concerns the target human HVEM mutant E76A expressed on cells (human) (UniProt Q92956). Described as above.
In test [7] the target is human HVEM mutant K64A expressed on cells (human) (UniProt Q92956). The description is as above.
Sequence of human HVEM mutant K64A expressed on cells (human) (Q92956 39-283 K64A): as the sequence (Q92956 39-283 Y61F) above, with F23Y, K26A counted along it
Test [8] deals with human HVEM mutant R113A expressed on cells (human) (UniProt Q92956). The description is as above.
Sequence of human HVEM mutant R113A expressed on cells (human) (Q92956 39-283 R113A): as the sequence (Q92956 39-283 Y61F) above, with F23Y, R75A counted along it
The target of test [9] is human HVEM (wild type) expressed on cells (human) (UniProt Q92956). As to the kind of experiment: flow cytometry saturation binding on 293T cells transfected with wild type HVEM. (In general: A flow cytometer gives signals particle by particle.)
Sequence of human HVEM (wild type) expressed on cells (human) (Q92956 39-283): as the sequence (Q92956 39-283 Y61F) above, with F23Y counted along it

Sequence of human HVEM mutant R62A expressed on cells (human) (Q92956 39-283 R62A): as the sequence (Q92956 39-283 Y61F) above, with F23Y, R24A counted along it
Sequence of human HVEM mutant E65A expressed on cells (human) (Q92956 39-283 E65A): as the sequence (Q92956 39-283 Y61F) above, with F23Y, E27A counted along it
Sequence of human HVEM mutant Y47F expressed on cells (human) (Q92956 39-283 Y47F): as the sequence (Q92956 39-283 Y61F) above, with Y9F, F23Y counted along it
Sequence of human HVEM mutant E76A expressed on cells (human) (Q92956 39-283 E76A): as the sequence (Q92956 39-283 Y61F) above, with F23Y, E38A counted along it
Sequence of human HVEM mutant S58A expressed on cells (human) (Q92956 39-283 S58A): as the sequence (Q92956 39-283 Y61F) above, with S20A, F23Y counted along it

B1: recombinant soluble human LIGHT truncated at G66 (ligand, from a related filing)
chain: GEMVTRLPDGPAGSWEQLIQERRSHEVNPAAHLTGANSSLTGSGGPLLWETQLGLAFLRGLSYHDGALVVTKAGYYYIYSKVQLGGVGCPLGLASTITHGLYKRTPRYPEELELLVSQQSPCGRATSSSRVWWDSSFLGGVVHLEAGEEVVVRVLDERLVRLRDGTRSYFGAFMV
On to B1, for which the Kd (commonly the equilibrium constant for the complex coming apart) in test [1] is 18 nM; in [2], 17 nM; in test [3], 14 nM; in test [4], 19 nM; in test [5], 17 nM; in test [6], 22 nM. Also, the figures for the dissociation constant (Kd) in test [7], in [8] and in test [9] were 14 nM, 18 nM and 13 nM, respectively.
